Data on 24 molecules can be found in patent US20220220218A1 (JIANGSU HENGRUI MEDICINE, published 2022).

The target in this assay is T1, human CD73 (huCD73) protein, antigen of the Biacore assay (human, UniProt P21589 27-547, limits assumed).
T1 construct: also called human CD73 antigen
T1 sequence (looked up): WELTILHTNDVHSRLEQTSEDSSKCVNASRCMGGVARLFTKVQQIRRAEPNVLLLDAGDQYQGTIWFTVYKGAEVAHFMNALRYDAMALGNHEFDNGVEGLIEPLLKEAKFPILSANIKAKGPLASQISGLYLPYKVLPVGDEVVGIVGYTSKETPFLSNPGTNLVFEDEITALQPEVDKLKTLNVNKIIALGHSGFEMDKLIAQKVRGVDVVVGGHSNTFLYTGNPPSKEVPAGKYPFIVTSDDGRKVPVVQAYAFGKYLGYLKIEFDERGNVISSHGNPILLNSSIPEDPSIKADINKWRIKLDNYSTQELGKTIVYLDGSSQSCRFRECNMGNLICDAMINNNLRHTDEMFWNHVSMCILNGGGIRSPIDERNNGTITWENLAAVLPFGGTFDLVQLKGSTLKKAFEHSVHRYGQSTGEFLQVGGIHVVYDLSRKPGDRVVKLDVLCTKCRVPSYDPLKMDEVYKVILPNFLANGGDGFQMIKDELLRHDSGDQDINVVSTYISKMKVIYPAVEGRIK
Briefly: SPR Biacore T200; antibody captured on Protein A chip, CD73 in flow; 1:1 Langmuir. The source says:
In this experiment, Biacore instrument was used to determine the affinity of the humanized anti-CD73 antibodies to be tested with human CD73 (huCD73) and monkey CD73 (cynoCD73).
A certain amount of test antibody was affinity-captured with Protein A biosensing chip (Cat. #29127556, GE), and then a certain concentration of human or monkey CD73 antigen was allowed to flow through the surface of the chip. The reaction signals were detected in real time with Biacore instrument (Biacore T200, GE) to generate a binding and dissociation curve. At the end of each cycle, after the dissociation was completed, the biosensor chip was washed and regenerated with Glycine-HCl, pH1.5 (Cat. #BR-1003-54, GE). The running buffer for the assay was 1×HBS-EP buffer solution (Cat. #BR-1001-88, GE).
The data obtained from the experiment was fitted against (1:1) Langmuir model using GE Biacore T200 Evaluation version 3.0 software, and the affinity values were obtained, as shown in Table 12 and Table 13 for details.

Substitutions are numbered along the chain they refer to.

B1: Hab110.23 (antibody, V domains shown)
VH: EVQLVQSGAEVKKPGASVKVSCKASGYTFTSYTMHWVRQAPGQRLEWIGYINPNSFYIEYNQKFKDRATLTADTSASTAYMELSSLRSEDTAVYYCARGDYDLFYDMDNWGQGTTVTVSS
VL: DIQMTQSPSSLSASVGDRVTITCRASQDIGNSLNWLQQKPGKAIKRLIYATFRLDSGVPSRFSGSRSGTEYTLTISSLQPEDFATYYCQQYASFPWTFGGGTKVEIK
notes: VL2 + VH3; recombined with human heavy and light constant regions
Molecule B1 came in with a Kd of 0.166 nM, a koff of 5.43e-05 s⁻¹ and a kon of 327000 M⁻¹ s⁻¹.

B2: Hab127.32 (antibody, V domains shown)
VH: EVQLVQSGAEVKKPGASVKVSCKASGYTFTAYFMNWVMQAPGQGLEWMGRIYHNNGDTFYSQKFKGRVTMTVDKSTSTVYMELSSLRSEDTAVYYCATSYVGDWGQGTTVTVSS
VL: B1 VL with N31D, K42G, I44L, F52S, R53S, R66G, Q89L
notes: VL3 + VH2; recombined with human heavy and light constant regions
In turn, B2 gave a Kd of 0.277 nM, a koff of 4.6e-05 s⁻¹ and an on-rate constant (kon) of 166000 M⁻¹ s⁻¹.

B3: Hab127.31g (antibody, V domains shown)
VH: B2 VH with M38R, N54Q, G56V
VL: B1 VL with N31D, K42G, I44L, F52S, R53S, R66G, Q89L
notes: VL3 + VH1g, HCDR2 hot-spot variant; full-length antibody
For the molecule B3, the Kd is 0.319 nM, the koff worked out at 5.18e-05 s⁻¹ and the kon is 163000 M⁻¹ s⁻¹.

B4: Hab127.13 (antibody, V domains shown)
VH: B2 VH with M48I, V68A, M70L
VL: B1 VL with N31D, L36Y, I44P, F52S, R53S, R66G, Y71F, Q89L
notes: VL1 + VH3; recombined with human heavy and light constant regions
As for B4, binding was characterised by a dissociation constant (Kd) of 0.79 nM, the koff was determined as 0.000119 s⁻¹ and the kon came to 150000 M⁻¹ s⁻¹.

B5: Hab127.31 (antibody, V domains shown)
VH: B2 VH with M38R
VL: B1 VL with N31D, K42G, I44L, F52S, R53S, R66G, Q89L
notes: VL3 + VH1; recombined with human heavy and light constant regions
B5 yielded a Kd of 0.257 nM, a koff of 4.2e-05 s⁻¹ and a kon of 163000 M⁻¹ s⁻¹.

B6: Hab127.31c (antibody, V domains shown)
VH: B2 VH with M38R, N55T
VL: B1 VL with N31D, K42G, I44L, F52S, R53S, R66G, Q89L
notes: VL3 + VH1c, HCDR2 hot-spot variant; full-length antibody
B6 gave a Kd of 0.205 nM, a koff of 4.76e-05 s⁻¹ and a kon of 232000 M⁻¹ s⁻¹.

B7: Hab110.24 (antibody, V domains shown)
VH: B1 VH with R67K
VL: B1 VL
notes: VL2 + VH4; recombined with human heavy and light constant regions
Take B7: binding was characterised by a dissociation constant (Kd) of 0.188 nM, the off-rate constant (koff) amounted to 6.2e-05 s⁻¹ and the kon was determined as 330000 M⁻¹ s⁻¹.

B8: Hab127.31h (antibody, V domains shown)
VH: B2 VH with M38R, N54L, G56V
VL: B1 VL with N31D, K42G, I44L, F52S, R53S, R66G, Q89L
notes: VL3 + VH1h, HCDR2 hot-spot variant; full-length antibody
For B8, binding was put at a Kd of 0.441 nM, the koff amounted to 6.66e-05 s⁻¹ and the association rate constant (kon) turned out to be 151000 M⁻¹ s⁻¹.

B9: Hab110.34 (antibody, V domains shown)
VH: B1 VH with R67K
VL: B1 VL with K42G, T85D
notes: VL3 + VH4; recombined with human heavy and light constant regions
Turning to B9, binding was put at a Kd of 0.228 nM, the koff came to 8.16e-05 s⁻¹ and the kon turned out to be 358000 M⁻¹ s⁻¹.

B10: Hab127.31a (antibody, V domains shown)
VH: B2 VH with M38R, N55Q
VL: B1 VL with N31D, K42G, I44L, F52S, R53S, R66G, Q89L
notes: VL3 + VH1a, HCDR2 hot-spot variant; full-length antibody
For B10, the Kd came out at 0.219 nM, the koff was determined as 4.8e-05 s⁻¹ and the kon came to 219000 M⁻¹ s⁻¹.

B11: Hab110.25 (antibody, V domains shown)
VH: B1 VH with R38K, R44G, R67K
VL: B1 VL
notes: VL2 + VH5; recombined with human heavy and light constant regions
Molecule B11 displayed a Kd of 0.223 nM, a koff of 7.79e-05 s⁻¹ and a kon of 349000 M⁻¹ s⁻¹.

B12: Hab127.21 (antibody, V domains shown)
VH: B2 VH with M38R
VL: B1 VL with N31D, I44P, F52S, R53S, R66G, Q89L
notes: VL2 + VH1; recombined with human heavy and light constant regions
As to B12, the Kd is 0.333 nM, the koff stood at 5.4e-05 s⁻¹ and the kon was found to be 162000 M⁻¹ s⁻¹.

B13: Hab110.31 (antibody, V domains shown)
VH: B1 VH with I48M, A68V, L70I, A72R
VL: B1 VL with K42G, T85D
notes: as for B5
For B13, the Kd amounted to 0.161 nM, the koff came out at 5.86e-05 s⁻¹ and the kon stood at 364000 M⁻¹ s⁻¹.

B14: Hab110.32 (antibody, V domains shown)
VH: B1 VH with I48M, A68V, L70I
VL: B1 VL with K42G, T85D
notes: as for B2
B14 came in with a Kd of 0.188 nM, a koff of 6.94e-05 s⁻¹ and a kon of 370000 M⁻¹ s⁻¹.

B15: Hab127.31e (antibody, V domains shown)
VH: B2 VH with M38R, N55E
VL: B1 VL with N31D, K42G, I44L, F52S, R53S, R66G, Q89L
notes: VL3 + VH1e, HCDR2 hot-spot variant; full-length antibody
B15 registered a dissociation constant Kd of 0.212 nM, a koff of 3.75e-05 s⁻¹ and a kon of 177000 M⁻¹ s⁻¹.

B16: Hab110.35 (antibody, V domains shown)
VH: B1 VH with R38K, R44G, R67K
VL: B1 VL with K42G, T85D
notes: VL3 + VH5; recombined with human heavy and light constant regions
Turning to B16, the Kd was 0.244 nM, the koff is 9.4e-05 s⁻¹ and the kon came out at 385000 M⁻¹ s⁻¹.

B17: Hab127.22 (antibody, V domains shown)
VH: B2 VH
VL: B1 VL with N31D, I44P, F52S, R53S, R66G, Q89L
notes: VL2 + VH2; recombined with human heavy and light constant regions
B17 had a Kd of 0.292 nM, a koff of 4.86e-05 s⁻¹ and a kon of 166000 M⁻¹ s⁻¹.

B18: Hab127.31b (antibody, V domains shown)
VH: B2 VH with M38R, N55L
VL: B1 VL with N31D, K42G, I44L, F52S, R53S, R66G, Q89L
notes: VL3 + VH1b, HCDR2 hot-spot variant; full-length antibody
Turning to B18, the Kd was determined as 0.204 nM, the koff was 4.48e-05 s⁻¹ and the kon worked out at 220000 M⁻¹ s⁻¹.

B19: Hab127.14 (antibody, V domains shown)
VH: B2 VH with G44S, M48I, V68A, M70L, S84R
VL: B1 VL with N31D, L36Y, I44P, F52S, R53S, R66G, Y71F, Q89L
notes: VL1 + VH4; recombined with human heavy and light constant regions
B19 gave a Kd of 0.847 nM, a koff of 0.000118 s⁻¹ and a kon of 140000 M⁻¹ s⁻¹.

B20: Hab127.23 (antibody, V domains shown)
VH: B2 VH with M48I, V68A, M70L
VL: B1 VL with N31D, I44P, F52S, R53S, R66G, Q89L
notes: as for B1
Molecule B20 yielded a Kd of 0.276 nM, a koff of 4.59e-05 s⁻¹ and a kon of 166000 M⁻¹ s⁻¹.

B21: Hab110.22 (antibody, V domains shown)
VH: B1 VH with I48M, A68V, L70I
VL: B1 VL
notes: as for B17
Take B21: binding was characterised by a dissociation constant (Kd) of 0.147 nM, the koff worked out at 4.95e-05 s⁻¹ and the kon was determined as 338000 M⁻¹ s⁻¹.

B22: Hab127.24 (antibody, V domains shown)
VH: B2 VH with G44S, M48I, V68A, M70L, S84R
VL: B1 VL with N31D, I44P, F52S, R53S, R66G, Q89L
notes: as for B7
Turning to B22, the Kd came out at 0.28 nM, the koff is 4.48e-05 s⁻¹ and the kon amounted to 160000 M⁻¹ s⁻¹.

B23: Hab127.31f (antibody, V domains shown)
VH: B2 VH with M38R, N55H
VL: B1 VL with N31D, K42G, I44L, F52S, R53S, R66G, Q89L
notes: VL3 + VH1f, HCDR2 hot-spot variant; full-length antibody
Consider B23, for which binding was characterised by a dissociation constant (Kd) of 0.193 nM, the off-rate (koff) was 4.33e-05 s⁻¹ and the kon turned out to be 224000 M⁻¹ s⁻¹.

B24: Hab127.31i (antibody, V domains shown)
VH: B2 VH with M38R, N54H, G56V
VL: B1 VL with N31D, K42G, I44L, F52S, R53S, R66G, Q89L
notes: VL3 + VH1i, HCDR2 hot-spot variant; full-length antibody
The molecule B24 came in with a Kd of 0.585 nM, a koff of 7.93e-05 s⁻¹ and a kon of 136000 M⁻¹ s⁻¹.
